The values below come from patent publication US10849992B1, “Methods of screening for sortilin binding antagonists” (ALECTOR LLC, priority 2015, dated 2020).

For test [1], the target named is T1, Sortilin (Homo sapiens, UniProt Q99523).
T1 sequence (Q99523 78-831): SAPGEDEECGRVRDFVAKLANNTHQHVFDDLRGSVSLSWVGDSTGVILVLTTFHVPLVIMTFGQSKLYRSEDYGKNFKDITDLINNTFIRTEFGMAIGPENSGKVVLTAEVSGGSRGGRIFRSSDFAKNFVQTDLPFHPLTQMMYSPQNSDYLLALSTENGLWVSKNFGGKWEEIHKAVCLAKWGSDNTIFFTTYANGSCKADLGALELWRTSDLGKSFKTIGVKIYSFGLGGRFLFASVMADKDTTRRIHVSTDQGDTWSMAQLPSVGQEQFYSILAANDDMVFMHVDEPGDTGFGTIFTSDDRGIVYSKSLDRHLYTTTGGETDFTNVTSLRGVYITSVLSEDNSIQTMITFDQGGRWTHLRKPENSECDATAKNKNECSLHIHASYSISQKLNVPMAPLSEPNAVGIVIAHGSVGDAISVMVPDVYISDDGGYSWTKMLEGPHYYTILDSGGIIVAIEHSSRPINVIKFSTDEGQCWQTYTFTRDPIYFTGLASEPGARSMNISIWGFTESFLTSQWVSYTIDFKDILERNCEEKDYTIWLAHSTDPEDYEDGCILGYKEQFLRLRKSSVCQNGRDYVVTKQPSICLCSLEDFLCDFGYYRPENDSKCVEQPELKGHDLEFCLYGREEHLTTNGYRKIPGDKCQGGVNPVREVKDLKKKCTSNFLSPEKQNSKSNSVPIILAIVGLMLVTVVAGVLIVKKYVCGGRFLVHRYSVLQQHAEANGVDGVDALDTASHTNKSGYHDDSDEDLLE
The experiment in a line: FACS assay: sortilin-mediated PGRN-DyLight650 binding and endocytosis. Set-up: Full-length Sortilin was used either untagged (Topo3.3) or with a C-terminal myc tag (pCMV6-AC-IRES-GFP); myc (only in the pCMV6-AC-IRES-GFP construct); expressed in transfected cells; host or cells: HEK293T. The note with it: FIG. 10B. Format: cell-based.
From the text: Sortilin-expressing cells were GFP-positive, and untransfected cells were GFP-negative (as labeled in FIG. 10A).
A second assay was developed using DyLight-650-conjugated PGRN protein. In this assay, binding and endocytosis of PGRN were observed using either fluorescence microscopy (FIG. 9A-9F) or FACS (FIGS. 10A and 10B).

The target in test [2] is T1, Sortilin. The experiment in a line: Cell-based PGRN-conditioned media assay (PGRN ELISA). Set-up: expressed in transfected cells; host or cells: HEK293T. The following applies: sortilin-expressing HEK293T; 36-48 h; 1 or 10 μM pro-peptide, 6.7 or 67 nM antibody. The method, then:
HEK293T cells were transiently transfected with constructs for expressing sortilin or LacZ (control) and incubated with PGRN-conditioned media collected from PGRN transfected HEK293T cells. PGRN levels remaining in the media were measured after 36-48 h using a PGRN ELISA Duoset kit (R&D Systems). Cells were incubated with 1 or 10 μM sortilin pro-peptide, 6.7 nM or 67 nM goat anti-sortilin antibody (SORT1 Ab), or 67 nM control IgG.
To prepare hPGRN-conditioned media, Hek293T cells were transiently transfected with full-length, untagged human PGRN (pCMV-Sport6, Thermo Scientific) using Fugene HD (Promega). Media containing PGRN was collected after 48 h. For the experiment, Hek293T cells were transiently transfected with human Sortilin (untagged in Topo3.3) or lacZ (control, Topo3.3) using Fugene HD. After 4-6 h, media containing a 1:5 dilution of PGRN conditioned media was added to the cells with or without blockers [1 or 10 uM Sortilin pro-peptide; 6.7 or 67 nM goat anti-Sortilin antibody (SORT1 Ab, R&D Systems, AF3154) or control IgG (R&D Systems, AB-108-C)]. Cell supernatant was collected after 48 h and analyzed using a PGRN Elisa Duoset kit (R&D Systems, DY2420).
(In an ELISA, binding on a coated surface is turned into a signal by an enzyme label.)

For test [3], the target named is T1, Sortilin. In words: Cell-based microscopy assay: DyLight-650 PGRN binding and endocytosis. Details: expressed in transfected cells; host or cells: HEK293T. The note with it: 10 μM blocker with 40 nM DyLight-650 PGRN, listed as sortilin pro-peptide. The method, then:
HEK293T cells were transiently transfected with constructs for expressing sortilin or LacZ (control) and incubated with PGRN labeled using DyLight-650 (Life Technologies, Carlsbad, Calif.) for up to 60 minutes at 37° C. Binding and endocytosis of PGRN were observed by fluorescence microscopy. Recombinant human Progranulin (Adipogen) was labeled with DyLight 650 (Life Technologies, Carlsbad, Calif.). Cells were transiently transfected with human Sortilin or lacZ (control) and GFP using Fugene and harvested after 24 h. GFP was either expressed by a second vector (Topo3.3, Invitrogen) or located on the same vector, separated by an IRES (pCMV6-AC-IRES-GFP, Origene). Full-length Sortilin was used either untagged (Topo3.3) or with a C-terminal myc tag (pCMV6-AC-IRES-GFP). Cells were then plated on microscopy chambered glass slides coated with poly-1-lysine. After 4-6 h, cells were washed in OptiMem serum-free media, and 40 nM Progranulin-650 was added with or without 10 uM Sortilin pro-peptide as a blocker. Cells were incubated at 37° C. for up to 60′. Subsequently, cells were fixed in 4% paraformaldehyde, washed in PBS and imaged on a Nikon fluorescent microscope.

Entries after “also recorded” stand apart in the source; their conditions may differ.

As for “sortilin pro-domain peptide: peptide of the Sortilin1 pro-domain used as a blocker of PGRN binding (QDRLDAPPPPAAPLPRWSGPIGVSWGLRAAAAGGAFPRGGRWRR)”, the “blocking of PGRN binding to transfected cells” value in test [1] is listed as “blocked”. In test [2], the “PGRN levels in the media (rescue of sortilin-mediated reduction)” value is listed as “partially rescued”. The “PGRN binding and endocytosis (DyLight-650 fluorescence)” value in test [3] is listed as “not observed; also recorded: little signal”.
